± gives the uncertainty stated by the source.
B1: E3 ubiquitin-protein ligase Midline-1, residues 172 to 214; numbered along this chain, O15344 (parent)
chain: GLMCLEHEDEKVNMYCVTDDQLICALCKLVGRHRDHQVAALSE

Variants of: B1
Assay: abundance fitness (aPCA) (normalised: wild type 0, dead -1); higher = more abundant; growth selection in yeast, the domain comes from the species named
Details: Homo sapiens

**Q.** With GLMCLEHEDEIVNMYCVTDDQLICALCKLVGRHRDHQVAALSE [K11I] as the variant, how does the abundance fitness read?
**A.** 0.284 ± 0.21

**Q.** With GLMCLEHEDENVNMYCVTDDQLICALCKLVGRHRDHQVAALSE [K11N] as the variant, how does the abundance fitness read?
**A.** 0.027 ± 0.14

**Q.** With GLMCLEHEDECVNMYCVTDDQLICALCKLVGRHRDHQVAALSE [K11C] as the variant, how does the abundance fitness read?
**A.** 0.148 ± 0.081

**Q.** Which abundance fitness does the source give for GLMCLEHEDEQVNMYCVTDDQLICALCKLVGRHRDHQVAALSE [K11Q] here?
**A.** 0.158 ± 0.079

**Q.** Which abundance fitness does the source give for GLMCLEHEDESVNMYCVTDDQLICALCKLVGRHRDHQVAALSE [K11S] here?
**A.** -0.07 ± 0.063

**Q.** Which abundance fitness does the source give for GLMCLEHEDEVVNMYCVTDDQLICALCKLVGRHRDHQVAALSE [K11V] here?
**A.** -0.259 ± 0.059

**Q.** For GLMCLEHEDEGVNMYCVTDDQLICALCKLVGRHRDHQVAALSE [K11G], which abundance fitness is on record?
**A.** -0.186 ± 0.051

**Q.** Which abundance fitness does the source give for GLMCLEHEDEFVNMYCVTDDQLICALCKLVGRHRDHQVAALSE [K11F] here?
**A.** -0.132 ± 0.22

**Q.** Which abundance fitness does the source give for GLMCLEHEDEPVNMYCVTDDQLICALCKLVGRHRDHQVAALSE [K11P] here?
**A.** -0.259 ± 0.18

**Q.** With GLMCLEHEDERVNMYCVTDDQLICALCKLVGRHRDHQVAALSE [K11R] as the variant, how does the abundance fitness read?
**A.** -0.012 ± 0.052

**Q.** For GLMCLEHEDEAVNMYCVTDDQLICALCKLVGRHRDHQVAALSE [K11A], which abundance fitness is on record?
**A.** -0.107 ± 0.054

**Q.** For GLMCLEHEDEWVNMYCVTDDQLICALCKLVGRHRDHQVAALSE [K11W], which abundance fitness is on record?
**A.** -0.288 ± 0.067

**Q.** With GLMCLEHEDEMVNMYCVTDDQLICALCKLVGRHRDHQVAALSE [K11M] as the variant, how does the abundance fitness read?
**A.** 0.096 ± 0.096

**Q.** Which abundance fitness does the source give for GLMCLEHEDEEVNMYCVTDDQLICALCKLVGRHRDHQVAALSE [K11E] here?
**A.** 0.033 ± 0.07

**Q.** Which abundance fitness does the source give for GLMCLEHEDEDVNMYCVTDDQLICALCKLVGRHRDHQVAALSE [K11D] here?
**A.** -0.258 ± 0.14

**Q.** For GLMCLEHEDEHVNMYCVTDDQLICALCKLVGRHRDHQVAALSE [K11H], which abundance fitness is on record?
**A.** 0.19 ± 0.41

**Q.** For GLMCLEHEDEKANMYCVTDDQLICALCKLVGRHRDHQVAALSE [V12A], which abundance fitness is on record?
**A.** -0.208 ± 0.09

**Q.** For GLMCLEHEDEKCNMYCVTDDQLICALCKLVGRHRDHQVAALSE [V12C], which abundance fitness is on record?
**A.** -0.231 ± 0.37

**Q.** For GLMCLQHEDEKVNMYCVTDDQLICALCKLVGRHRDHQVAALSE [E6Q], which abundance fitness is on record?
**A.** -0.036 ± 0.09

**Q.** Which abundance fitness does the source give for GLMCLRHEDEKVNMYCVTDDQLICALCKLVGRHRDHQVAALSE [E6R] here?
**A.** -0.297 ± 0.054

**Q.** With GLMCLNHEDEKVNMYCVTDDQLICALCKLVGRHRDHQVAALSE [E6N] as the variant, how does the abundance fitness read?
**A.** -0.226 ± 0.18

**Q.** With GLMCLVHEDEKVNMYCVTDDQLICALCKLVGRHRDHQVAALSE [E6V] as the variant, how does the abundance fitness read?
**A.** -0.183 ± 0.059

**Q.** For GLMCLHHEDEKVNMYCVTDDQLICALCKLVGRHRDHQVAALSE [E6H], which abundance fitness is on record?
**A.** 0.063 ± 0.21

**Q.** Which abundance fitness does the source give for GLMCLYHEDEKVNMYCVTDDQLICALCKLVGRHRDHQVAALSE [E6Y] here?
**A.** -0.276 ± 0.085

**Q.** Which abundance fitness does the source give for GLMCLIHEDEKVNMYCVTDDQLICALCKLVGRHRDHQVAALSE [E6I] here?
**A.** 0.126 ± 0.095

**Q.** Which abundance fitness does the source give for GLMCLPHEDEKVNMYCVTDDQLICALCKLVGRHRDHQVAALSE [E6P] here?
**A.** -0.843 ± 0.17

**Q.** With GLMCLDHEDEKVNMYCVTDDQLICALCKLVGRHRDHQVAALSE [E6D] as the variant, how does the abundance fitness read?
**A.** -0.132 ± 0.19

**Q.** Which abundance fitness does the source give for GLMCLGHEDEKVNMYCVTDDQLICALCKLVGRHRDHQVAALSE [E6G] here?
**A.** -0.438 ± 0.055

**Q.** For GLMCLFHEDEKVNMYCVTDDQLICALCKLVGRHRDHQVAALSE [E6F], which abundance fitness is on record?
**A.** 0.023 ± 0.11

**Q.** With GLMCLAHEDEKVNMYCVTDDQLICALCKLVGRHRDHQVAALSE [E6A] as the variant, how does the abundance fitness read?
**A.** -0.085 ± 0.075

**Q.** Which abundance fitness does the source give for GLMCLSHEDEKVNMYCVTDDQLICALCKLVGRHRDHQVAALSE [E6S] here?
**A.** 0.039 ± 0.064

**Q.** With GLMCLKHEDEKVNMYCVTDDQLICALCKLVGRHRDHQVAALSE [E6K] as the variant, how does the abundance fitness read?
**A.** -0.206 ± 0.066

**Q.** With GLMCLWHEDEKVNMYCVTDDQLICALCKLVGRHRDHQVAALSE [E6W] as the variant, how does the abundance fitness read?
**A.** -0.374 ± 0.083

**Q.** For GLMCLLHEDEKVNMYCVTDDQLICALCKLVGRHRDHQVAALSE [E6L], which abundance fitness is on record?
**A.** -0.14 ± 0.063

**Q.** With GLMCLCHEDEKVNMYCVTDDQLICALCKLVGRHRDHQVAALSE [E6C] as the variant, how does the abundance fitness read?
**A.** -0.447 ± 0.17

**Q.** Which abundance fitness does the source give for GLMCLTHEDEKVNMYCVTDDQLICALCKLVGRHRDHQVAALSE [E6T] here?
**A.** 0.001 ± 0.15

**Q.** With GLMCLEREDEKVNMYCVTDDQLICALCKLVGRHRDHQVAALSE [H7R] as the variant, how does the abundance fitness read?
**A.** -0.646 ± 0.07

**Q.** With GLMCLEQEDEKVNMYCVTDDQLICALCKLVGRHRDHQVAALSE [H7Q] as the variant, how does the abundance fitness read?
**A.** -0.551 ± 0.12

**Q.** Which abundance fitness does the source give for GLMCLEMEDEKVNMYCVTDDQLICALCKLVGRHRDHQVAALSE [H7M] here?
**A.** -0.66 ± 0.12

**Q.** For GLMCLEAEDEKVNMYCVTDDQLICALCKLVGRHRDHQVAALSE [H7A], which abundance fitness is on record?
**A.** -0.703 ± 0.083

**Q.** Which abundance fitness does the source give for GLMCLETEDEKVNMYCVTDDQLICALCKLVGRHRDHQVAALSE [H7T] here?
**A.** -0.492 ± 0.15

**Q.** With GLMCLEGEDEKVNMYCVTDDQLICALCKLVGRHRDHQVAALSE [H7G] as the variant, how does the abundance fitness read?
**A.** -0.5 ± 0.057

**Q.** Which abundance fitness does the source give for GLMCLELEDEKVNMYCVTDDQLICALCKLVGRHRDHQVAALSE [H7L] here?
**A.** -1.03 ± 0.14

**Q.** For GLMCLEWEDEKVNMYCVTDDQLICALCKLVGRHRDHQVAALSE [H7W], which abundance fitness is on record?
**A.** -0.89 ± 0.13

**Q.** With GLMCLEEEDEKVNMYCVTDDQLICALCKLVGRHRDHQVAALSE [H7E] as the variant, how does the abundance fitness read?
**A.** -0.433 ± 0.081

**Q.** With GLMCLESEDEKVNMYCVTDDQLICALCKLVGRHRDHQVAALSE [H7S] as the variant, how does the abundance fitness read?
**A.** -0.765 ± 0.11

**Q.** With GLMCLEYEDEKVNMYCVTDDQLICALCKLVGRHRDHQVAALSE [H7Y] as the variant, how does the abundance fitness read?
**A.** -0.637 ± 0.13

**Q.** With GLMCLEVEDEKVNMYCVTDDQLICALCKLVGRHRDHQVAALSE [H7V] as the variant, how does the abundance fitness read?
**A.** -1.34 ± 0.18

**Q.** Which abundance fitness does the source give for GLMCLEKEDEKVNMYCVTDDQLICALCKLVGRHRDHQVAALSE [H7K] here?
**A.** -0.604 ± 0.12

**Q.** Which abundance fitness does the source give for GLMCLECEDEKVNMYCVTDDQLICALCKLVGRHRDHQVAALSE [H7C] here?
**A.** -0.466 ± 0.14

**Q.** With GLMCLEHDDEKVNMYCVTDDQLICALCKLVGRHRDHQVAALSE [E8D] as the variant, how does the abundance fitness read?
**A.** -0.165 ± 0.09

**Q.** For GLMCLEHLDEKVNMYCVTDDQLICALCKLVGRHRDHQVAALSE [E8L], which abundance fitness is on record?
**A.** 0.108 ± 0.069

**Q.** For GLMCLEHIDEKVNMYCVTDDQLICALCKLVGRHRDHQVAALSE [E8I], which abundance fitness is on record?
**A.** -0.139 ± 0.16

**Q.** For GLMCLEHVDEKVNMYCVTDDQLICALCKLVGRHRDHQVAALSE [E8V], which abundance fitness is on record?
**A.** 0.072 ± 0.053

**Q.** With GLMCLEHQDEKVNMYCVTDDQLICALCKLVGRHRDHQVAALSE [E8Q] as the variant, how does the abundance fitness read?
**A.** 0.051 ± 0.074

**Q.** With GLMCLEHPDEKVNMYCVTDDQLICALCKLVGRHRDHQVAALSE [E8P] as the variant, how does the abundance fitness read?
**A.** 0.186 ± 0.081

**Q.** Which abundance fitness does the source give for GLMCLEHCDEKVNMYCVTDDQLICALCKLVGRHRDHQVAALSE [E8C] here?
**A.** 0.16 ± 0.066

**Q.** Which abundance fitness does the source give for GLMCLEHNDEKVNMYCVTDDQLICALCKLVGRHRDHQVAALSE [E8N] here?
**A.** -0.137 ± 0.11

**Q.** For GLMCLEHADEKVNMYCVTDDQLICALCKLVGRHRDHQVAALSE [E8A], which abundance fitness is on record?
**A.** 0.179 ± 0.054
